Laboratory results reported in patent US20070086998A1.

Experiments:
[1] = molecular target: HLA-DR as expressed on the tumor cell line; test: cell-based or functional assay
[2] = molecular target: HLA-DR on LG-2 cells (human); test: cell-based or functional assay

Sequence of L243 (antibody) (VH): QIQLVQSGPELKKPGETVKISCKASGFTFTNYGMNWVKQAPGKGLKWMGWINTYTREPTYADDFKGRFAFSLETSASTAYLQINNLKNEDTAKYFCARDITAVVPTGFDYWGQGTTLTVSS
Sequence of L243 (antibody) (VL): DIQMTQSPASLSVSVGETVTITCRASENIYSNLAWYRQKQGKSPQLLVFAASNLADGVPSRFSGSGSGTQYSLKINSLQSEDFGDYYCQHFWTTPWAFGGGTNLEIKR

**Q.** How did the % Killing by mAb; ARH-77 (DR 12); 200 nM, 4 h [1] turn out when L243 (antibody) was run?
**A.** 88%

**Q.** And the % Killing by mAb; BJAB (DR 12,13); 200 nM, 4 h [1]?
**A.** 53%

**Q.** What about the % Killing by mAb; BONNA-12; 200 nM, 4 h [1] of the same substance?
**A.** 92%

**Q.** What about the % Killing by mAb; DOHH-2 (DR 1,2); 200 nM, 4 h [1] of the same substance?
**A.** 29%

**Q.** What about the % Killing by mAb; EOL-1; 200 nM, 4 h [1] of the same substance?
**A.** 22%

**Q.** What about the % Killing by mAb; GRANTA-519 (DR 2,11); 200 nM, 4 h [1] of the same substance?
**A.** 83%

**Q.** And the % Killing by mAb; HC-1; 200 nM, 4 h [1]?
**A.** 88%

**Q.** And the % Killing by mAb; HD-MY-Z; 200 nM, 4 h [1]?
**A.** 35%

**Q.** What about the % Killing by mAb; HDLM-2; 200 nM, 4 h [1] of the same substance?
**A.** 77%

**Q.** And the % Killing by mAb; KARPAS-299 (DR 1,2); 200 nM, 4 h [1]?
**A.** 78%

**Q.** What about the % Killing by mAb; KARPAS-422 (DR 2,4); 200 nM, 4 h [1] of the same substance?
**A.** 25%

**Q.** And the % Killing by mAb; KM-H2; 200 nM, 4 h [1]?
**A.** 81%

**Q.** And the % Killing by mAb; L1236; 200 nM, 4 h [1]?
**A.** 52%

**Q.** What about the % Killing by mAb; L-363; 200 nM, 4 h [1] of the same substance?
**A.** 6%

**Q.** And the % Killing by mAb; L-428 (DR 12); 200 nM, 4 h [1]?
**A.** 82%

**Q.** And the % Killing by mAb; LP-1; 200 nM, 4 h [1]?
**A.** 12%

**Q.** And the % Killing by mAb; MHH-CALL-4 (DR 1,2); 200 nM, 4 h [1]?
**A.** 35%

**Q.** What about the % Killing by mAb; MHH-PREB-1; 200 nM, 4 h [1] of the same substance?
**A.** 3%

**Q.** And the % Killing by mAb; MN-60 (DR 10,13); 200 nM, 4 h [1]?
**A.** 46%

**Q.** And the % Killing by mAb; NALM-1 (DR 1,4); 200 nM, 4 h [1]?
**A.** 44%

**Q.** What about the % Killing by mAb; RAJI (DR 10,17); 200 nM, 4 h [1] of the same substance?
**A.** 69%

**Q.** And the % Killing by mAb; RPMI-8226; 200 nM, 4 h [1]?
**A.** 6%

**Q.** What about the % Killing by mAb; SR-786 (DR 1,2); 200 nM, 4 h [1] of the same substance?
**A.** 3%

**Q.** And the % Killing by mAb; LG-2 (DR 1,1); 200 nM, 4 h [2]?
**A.** 79%
